According to patent US20140087995A1 (published 2014):
Numbered stars: 1 amine (or outer) side, 2 acyl side, 3 side chain; on linkers, the order of the positions; unused ones are H or OH. Bridge positions count the residues as written; N and C are the ends. Side chains are listed from the residue outwards. Ends that are not written are not given here. * marks the point of attachment. C20 diacid = O=C(O)CCCCCCCCCCCCCCCCCCC(=O)*; γGlu = O=C(O)[C@H](CCC(=O)[*:2])N[*:1]

T1: human calcitonin receptor (human, UniProt P30988 25-474)
T1 construct: whole, on cells; also called hCTR; hCT
T1 sequence (looked up): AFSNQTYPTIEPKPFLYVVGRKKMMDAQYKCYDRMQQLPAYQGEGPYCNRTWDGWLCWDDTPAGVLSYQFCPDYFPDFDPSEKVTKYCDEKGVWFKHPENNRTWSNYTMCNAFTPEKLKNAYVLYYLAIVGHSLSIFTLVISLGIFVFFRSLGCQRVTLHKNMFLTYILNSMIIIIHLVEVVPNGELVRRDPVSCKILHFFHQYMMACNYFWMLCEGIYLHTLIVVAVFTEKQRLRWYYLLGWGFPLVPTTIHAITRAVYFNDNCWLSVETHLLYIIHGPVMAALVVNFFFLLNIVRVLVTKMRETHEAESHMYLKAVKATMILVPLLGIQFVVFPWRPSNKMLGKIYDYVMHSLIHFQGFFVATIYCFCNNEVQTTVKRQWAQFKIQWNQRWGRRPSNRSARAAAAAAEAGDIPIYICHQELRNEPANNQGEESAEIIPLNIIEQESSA


Target: T1, human calcitonin receptor
Assay: SPA competition with 125I-calcitonin, membranes of BHK hCTR cells (Assay VII)
Outline: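 BHK hCTR membranes 35 ng/μL + SPA beads 0.05 mg/well; buffer 50 mM Hepes pH 7.4, 1 mM CaCl2, 5 mM MgCl₂, 0.1% OA, 0.02% Tween20. 120 min, 25° C., shaking. Scintillation count; IC50 by one-site binding competition.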

| Binder | IC50 [nM] |
| --- | --- |
| K([γGlu-C20 diacid])CNTATCATQRLAHFLRHSSPNFGAIPSSTPVGSNTY-NH2 (disulfide 2-7; N-terminus assumed; SMILES CC[C@H](C)[C@H](NC(=O)[C@H](C)NC(=O)CNC(=O)[C@H](Cc1ccccc1)NC(=O)[C@H](CC(N)=O)NC(=O)[C@@H]1CCCN1C(=O)[C@H](CO)NC(=O)[C@H](CO)NC(=O)[C@H](Cc1c[nH]cn1)NC(=O)[C@H](CCCNC(=N)N)NC(=O)[C@H](CC(C)C)NC(=O)[C@H](Cc1ccccc1)NC(=O)[C@H](Cc1c[nH]cn1)NC(=O)[C@H](C)NC(=O)[C@H](CC(C)C)NC(=O)[C@H](CCCNC(=N)N)NC(=O)[C@H](CCC(N)=O)NC(=O)[C@@H](NC(=O)[C@H](C)NC(=O)[C@@H]1CSSC[C@H](NC(=O)[C@@H](N)CCCCNC(=O)CC[C@H](NC(=O)CCCCCCCCCCCCCCCCCCC(=O)O)C(=O)O)C(=O)N[C@@H](CC(N)=O)C(=O)N[C@@H]([C@@H](C)O)C(=O)N[C@@H](C)C(=O)N[C@@H]([C@@H](C)O)C(=O)N1)[C@@H](C)O)C(=O)N1CCC[C@H]1C(=O)N[C@@H](CO)C(=O)N[C@@H](CO)C(=O)N[C@H](C(=O)N1CCC[C@H]1C(=O)N[C@H](C(=O)NCC(=O)N[C@@H](CO)C(=O)N[C@@H](CC(N)=O)C(=O)N[C@H](C(=O)N[C@@H](Cc1ccc(O)cc1)C(N)=O)[C@@H](C)O)C(C)C)[C@@H](C)O, also called compound 62) | 6.17 |
| K([γGlu-γGlu-C20 diacid])CNTATCATQRLADFLRHSSPNFGAIPSSTNVGSRTY-NH2 (disulfide 2-7; N-terminus assumed; SMILES CC[C@H](C)[C@H](NC(=O)[C@H](C)NC(=O)CNC(=O)[C@H](Cc1ccccc1)NC(=O)[C@H](CC(N)=O)NC(=O)[C@@H]1CCCN1C(=O)[C@H](CO)NC(=O)[C@H](CO)NC(=O)[C@H](Cc1c[nH]cn1)NC(=O)[C@H](CCCNC(=N)N)NC(=O)[C@H](CC(C)C)NC(=O)[C@H](Cc1ccccc1)NC(=O)[C@H](CC(=O)O)NC(=O)[C@H](C)NC(=O)[C@H](CC(C)C)NC(=O)[C@H](CCCNC(=N)N)NC(=O)[C@H](CCC(N)=O)NC(=O)[C@@H](NC(=O)[C@H](C)NC(=O)[C@@H]1CSSC[C@H](NC(=O)[C@@H](N)CCCCNC(=O)CC[C@H](NC(=O)CC[C@H](NC(=O)CCCCCCCCCCCCCCCCCCC(=O)O)C(=O)O)C(=O)O)C(=O)N[C@@H](CC(N)=O)C(=O)N[C@@H]([C@@H](C)O)C(=O)N[C@@H](C)C(=O)N[C@@H]([C@@H](C)O)C(=O)N1)[C@@H](C)O)C(=O)N1CCC[C@H]1C(=O)N[C@@H](CO)C(=O)N[C@@H](CO)C(=O)N[C@H](C(=O)N[C@@H](CC(N)=O)C(=O)N[C@H](C(=O)NCC(=O)N[C@@H](CO)C(=O)N[C@@H](CCCNC(=N)N)C(=O)N[C@H](C(=O)N[C@@H](Cc1ccc(O)cc1)C(N)=O)[C@@H](C)O)C(C)C)[C@@H](C)O, also called compound 52) | 56.9 |
| K([γGlu-C20 diacid])CNTATCATQRLAHFLRHSSPNFGAIPSSTNVGSNTY-NH2 (disulfide 2-7; N-terminus assumed; SMILES CC[C@H](C)[C@H](NC(=O)[C@H](C)NC(=O)CNC(=O)[C@H](Cc1ccccc1)NC(=O)[C@H](CC(N)=O)NC(=O)[C@@H]1CCCN1C(=O)[C@H](CO)NC(=O)[C@H](CO)NC(=O)[C@H](Cc1c[nH]cn1)NC(=O)[C@H](CCCNC(=N)N)NC(=O)[C@H](CC(C)C)NC(=O)[C@H](Cc1ccccc1)NC(=O)[C@H](Cc1c[nH]cn1)NC(=O)[C@H](C)NC(=O)[C@H](CC(C)C)NC(=O)[C@H](CCCNC(=N)N)NC(=O)[C@H](CCC(N)=O)NC(=O)[C@@H](NC(=O)[C@H](C)NC(=O)[C@@H]1CSSC[C@H](NC(=O)[C@@H](N)CCCCNC(=O)CC[C@H](NC(=O)CCCCCCCCCCCCCCCCCCC(=O)O)C(=O)O)C(=O)N[C@@H](CC(N)=O)C(=O)N[C@@H]([C@@H](C)O)C(=O)N[C@@H](C)C(=O)N[C@@H]([C@@H](C)O)C(=O)N1)[C@@H](C)O)C(=O)N1CCC[C@H]1C(=O)N[C@@H](CO)C(=O)N[C@@H](CO)C(=O)N[C@H](C(=O)N[C@@H](CC(N)=O)C(=O)N[C@H](C(=O)NCC(=O)N[C@@H](CO)C(=O)N[C@@H](CC(N)=O)C(=O)N[C@H](C(=O)N[C@@H](Cc1ccc(O)cc1)C(N)=O)[C@@H](C)O)C(C)C)[C@@H](C)O, also called compound 70) [N^ε1-[(4S)-4-carboxy-4-(19-carboxynonadecanoylamino)butanoyl]-[His14,Arg17,Pro21,Pro27]-h-amylin] | 10.3 |
| K([γGlu-γGlu-C20 diacid])CNTATCATQRLADFLRHSSPNFGAIPSSTNVGSDTY-NH2 (disulfide 2-7; N-terminus assumed; SMILES CC[C@H](C)[C@H](NC(=O)[C@H](C)NC(=O)CNC(=O)[C@H](Cc1ccccc1)NC(=O)[C@H](CC(N)=O)NC(=O)[C@@H]1CCCN1C(=O)[C@H](CO)NC(=O)[C@H](CO)NC(=O)[C@H](Cc1c[nH]cn1)NC(=O)[C@H](CCCNC(=N)N)NC(=O)[C@H](CC(C)C)NC(=O)[C@H](Cc1ccccc1)NC(=O)[C@H](CC(=O)O)NC(=O)[C@H](C)NC(=O)[C@H](CC(C)C)NC(=O)[C@H](CCCNC(=N)N)NC(=O)[C@H](CCC(N)=O)NC(=O)[C@@H](NC(=O)[C@H](C)NC(=O)[C@@H]1CSSC[C@H](NC(=O)[C@@H](N)CCCCNC(=O)CC[C@H](NC(=O)CC[C@H](NC(=O)CCCCCCCCCCCCCCCCCCC(=O)O)C(=O)O)C(=O)O)C(=O)N[C@@H](CC(N)=O)C(=O)N[C@@H]([C@@H](C)O)C(=O)N[C@@H](C)C(=O)N[C@@H]([C@@H](C)O)C(=O)N1)[C@@H](C)O)C(=O)N1CCC[C@H]1C(=O)N[C@@H](CO)C(=O)N[C@@H](CO)C(=O)N[C@H](C(=O)N[C@@H](CC(N)=O)C(=O)N[C@H](C(=O)NCC(=O)N[C@@H](CO)C(=O)N[C@@H](CC(=O)O)C(=O)N[C@H](C(=O)N[C@@H](Cc1ccc(O)cc1)C(N)=O)[C@@H](C)O)C(C)C)[C@@H](C)O, also called compound 2) | 19.5 |
| K([γGlu-C20 diacid])CNTATCATQRLAHFLRHSSPNFGAIPSSTNVGPNTY-NH2 (disulfide 2-7; N-terminus assumed; SMILES CC[C@H](C)[C@H](NC(=O)[C@H](C)NC(=O)CNC(=O)[C@H](Cc1ccccc1)NC(=O)[C@H](CC(N)=O)NC(=O)[C@@H]1CCCN1C(=O)[C@H](CO)NC(=O)[C@H](CO)NC(=O)[C@H](Cc1c[nH]cn1)NC(=O)[C@H](CCCNC(=N)N)NC(=O)[C@H](CC(C)C)NC(=O)[C@H](Cc1ccccc1)NC(=O)[C@H](Cc1c[nH]cn1)NC(=O)[C@H](C)NC(=O)[C@H](CC(C)C)NC(=O)[C@H](CCCNC(=N)N)NC(=O)[C@H](CCC(N)=O)NC(=O)[C@@H](NC(=O)[C@H](C)NC(=O)[C@@H]1CSSC[C@H](NC(=O)[C@@H](N)CCCCNC(=O)CC[C@H](NC(=O)CCCCCCCCCCCCCCCCCCC(=O)O)C(=O)O)C(=O)N[C@@H](CC(N)=O)C(=O)N[C@@H]([C@@H](C)O)C(=O)N[C@@H](C)C(=O)N[C@@H]([C@@H](C)O)C(=O)N1)[C@@H](C)O)C(=O)N1CCC[C@H]1C(=O)N[C@@H](CO)C(=O)N[C@@H](CO)C(=O)N[C@H](C(=O)N[C@@H](CC(N)=O)C(=O)N[C@H](C(=O)NCC(=O)N1CCC[C@H]1C(=O)N[C@@H](CC(N)=O)C(=O)N[C@H](C(=O)N[C@@H](Cc1ccc(O)cc1)C(N)=O)[C@@H](C)O)C(C)C)[C@@H](C)O, also called compound 67) | 4.63 |
| K([γGlu-γGlu-C20 diacid])CNTATCATQRLADFLRHSSPNFGAPLSSTNVGSDTY-NH2 (disulfide 2-7; N-terminus assumed; SMILES CC(C)C[C@H](NC(=O)[C@H](CCCNC(=N)N)NC(=O)[C@H](CCC(N)=O)NC(=O)[C@@H](NC(=O)[C@H](C)NC(=O)[C@@H]1CSSC[C@H](NC(=O)[C@@H](N)CCCCNC(=O)CC[C@H](NC(=O)CC[C@H](NC(=O)CCCCCCCCCCCCCCCCCCC(=O)O)C(=O)O)C(=O)O)C(=O)N[C@@H](CC(N)=O)C(=O)N[C@@H]([C@@H](C)O)C(=O)N[C@@H](C)C(=O)N[C@@H]([C@@H](C)O)C(=O)N1)[C@@H](C)O)C(=O)N[C@@H](C)C(=O)N[C@@H](CC(=O)O)C(=O)N[C@@H](Cc1ccccc1)C(=O)N[C@@H](CC(C)C)C(=O)N[C@@H](CCCNC(=N)N)C(=O)N[C@@H](Cc1c[nH]cn1)C(=O)N[C@@H](CO)C(=O)N[C@@H](CO)C(=O)N1CCC[C@H]1C(=O)N[C@@H](CC(N)=O)C(=O)N[C@@H](Cc1ccccc1)C(=O)NCC(=O)N[C@@H](C)C(=O)N1CCC[C@H]1C(=O)N[C@@H](CC(C)C)C(=O)N[C@@H](CO)C(=O)N[C@@H](CO)C(=O)N[C@H](C(=O)N[C@@H](CC(N)=O)C(=O)N[C@H](C(=O)NCC(=O)N[C@@H](CO)C(=O)N[C@@H](CC(=O)O)C(=O)N[C@H](C(=O)N[C@@H](Cc1ccc(O)cc1)C(N)=O)[C@@H](C)O)C(C)C)[C@@H](C)O, also called compound 1) | 32.5 |
